Starred links: 1 amine or outer side, 2 acyl side, 3 side chain; linkers in the order of their positions; H or OH if unused. Non-standard residues stand in square brackets, D forms with d. Groups on a side chain read outwards from the residue. No end group written: not given here. *: point of attachment. Trp(5-Br) = N[C@@H](Cc1c[nH]c2ccc(Br)cc12)C(=O)O; Bip = N[C@@H](Cc1ccc(-c2ccccc2)cc1)C(=O)O; C18 diacid = O=C(O)CCCCCCCCCCCCCCCCC(=O)*; γGlu = O=C(O)[C@H](CCC(=O)[*:2])N[*:1]; αMeF = C[C@](N)(Cc1ccccc1)C(=O)O; AEEA = NCCOCCOCC(=O)O; Aib = CC(C)(N)C(=O)O
How the values were obtained:
[1] = molecular target: human GLP-1 receptor (hGLP-1R) (human, UniProt P43220 24-463); assay: cell-based or functional assay
[2] = molecular target: human glucagon receptor (hGCGR) (human, UniProt P47871 26-477); assay: cell-based or functional assay
Sequence of human glucagon receptor (hGCGR) (P47871 26-477): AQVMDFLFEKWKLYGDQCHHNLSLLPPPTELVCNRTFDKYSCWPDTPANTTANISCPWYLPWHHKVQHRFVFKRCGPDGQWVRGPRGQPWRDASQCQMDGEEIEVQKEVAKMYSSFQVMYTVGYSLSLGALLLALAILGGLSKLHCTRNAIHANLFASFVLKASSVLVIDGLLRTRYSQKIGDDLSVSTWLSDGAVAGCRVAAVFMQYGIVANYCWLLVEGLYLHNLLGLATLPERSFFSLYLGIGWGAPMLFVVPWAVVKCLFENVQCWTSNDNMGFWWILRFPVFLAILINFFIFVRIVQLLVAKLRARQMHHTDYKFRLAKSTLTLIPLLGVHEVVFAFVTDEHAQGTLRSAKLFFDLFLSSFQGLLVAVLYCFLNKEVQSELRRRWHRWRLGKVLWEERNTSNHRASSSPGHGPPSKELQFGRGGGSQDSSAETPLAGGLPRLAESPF

Binder | hGLP-1R EC50 (pM) [1] | hGluc-R EC50 (pM) [2]
H[Aib]QGTFTSDVSK[αMeF]LDSK([AEEA-AEEA-γGlu-C18 diacid])RAQDFVR[Trp(5-Br)]LL[Aib]E-OH (N-terminus assumed; SMILES CC(C)C[C@H](NC(=O)[C@H](Cc1c[nH]c2ccc(Br)cc12)NC(=O)[C@H](CCCNC(=N)N)NC(=O)[C@@H](NC(=O)[C@H](Cc1ccccc1)NC(=O)[C@H](CC(=O)O)NC(=O)[C@H](CCC(N)=O)NC(=O)[C@H](C)NC(=O)[C@H](CCCNC(=N)N)NC(=O)[C@H](CCCCNC(=O)COCCOCCNC(=O)COCCOCCNC(=O)CC[C@H](NC(=O)CCCCCCCCCCCCCCCCC(=O)O)C(=O)O)NC(=O)[C@H](CO)NC(=O)[C@H](CC(=O)O)NC(=O)[C@H](CC(C)C)NC(=O)[C@](C)(Cc1ccccc1)NC(=O)[C@H](CCCCN)NC(=O)[C@H](CO)NC(=O)[C@@H](NC(=O)[C@H](CC(=O)O)NC(=O)[C@H](CO)NC(=O)[C@@H](NC(=O)[C@H](Cc1ccccc1)NC(=O)[C@@H](NC(=O)CNC(=O)[C@H](CCC(N)=O)NC(=O)C(C)(C)NC(=O)[C@@H](N)Cc1c[nH]cn1)[C@@H](C)O)[C@@H](C)O)C(C)C)C(C)C)C(=O)N[C@@H](CC(C)C)C(=O)NC(C)(C)C(=O)N[C@@H](CCC(=O)O)C(=O)O) [Peptide 434] | 153 pM | 294 pM
H[Aib]QGTFTSDVSK[αMeF]LDTK([AEEA-AEEA-γGlu-C18 diacid])RARDFVQWLLE[Aib]G (not fully specified (C-terminus)) [Peptide 427] | 12.4 pM | 47.2 pM
H[Aib]QGTFTSDVSK[αMeF]LDKK([AEEA-AEEA-γGlu-C18 diacid])RAQDFVRWLLR[Aib]K-OH (N-terminus assumed; SMILES CC(C)C[C@H](NC(=O)[C@H](Cc1c[nH]c2ccccc12)NC(=O)[C@H](CCCNC(=N)N)NC(=O)[C@@H](NC(=O)[C@H](Cc1ccccc1)NC(=O)[C@H](CC(=O)O)NC(=O)[C@H](CCC(N)=O)NC(=O)[C@H](C)NC(=O)[C@H](CCCNC(=N)N)NC(=O)[C@H](CCCCNC(=O)COCCOCCNC(=O)COCCOCCNC(=O)CC[C@H](NC(=O)CCCCCCCCCCCCCCCCC(=O)O)C(=O)O)NC(=O)[C@H](CCCCN)NC(=O)[C@H](CC(=O)O)NC(=O)[C@H](CC(C)C)NC(=O)[C@](C)(Cc1ccccc1)NC(=O)[C@H](CCCCN)NC(=O)[C@H](CO)NC(=O)[C@@H](NC(=O)[C@H](CC(=O)O)NC(=O)[C@H](CO)NC(=O)[C@@H](NC(=O)[C@H](Cc1ccccc1)NC(=O)[C@@H](NC(=O)CNC(=O)[C@H](CCC(N)=O)NC(=O)C(C)(C)NC(=O)[C@@H](N)Cc1c[nH]cn1)[C@@H](C)O)[C@@H](C)O)C(C)C)C(C)C)C(=O)N[C@@H](CC(C)C)C(=O)N[C@@H](CCCNC(=N)N)C(=O)NC(C)(C)C(=O)N[C@@H](CCCCN)C(=O)O) [Peptide 426] | 7.3 pM | 61.2 pM
H[Aib]QGTFTSDVSK[αMeF]LDTK([AEEA-AEEA-γGlu-γGlu-C18 diacid])RAQDFVAWLEA[Aib]G-NH2 (N-terminus assumed; SMILES CC(C)C[C@H](NC(=O)[C@H](Cc1c[nH]c2ccccc12)NC(=O)[C@H](C)NC(=O)[C@@H](NC(=O)[C@H](Cc1ccccc1)NC(=O)[C@H](CC(=O)O)NC(=O)[C@H](CCC(N)=O)NC(=O)[C@H](C)NC(=O)[C@H](CCCNC(=N)N)NC(=O)[C@H](CCCCNC(=O)COCCOCCNC(=O)COCCOCCNC(=O)CC[C@H](NC(=O)CC[C@H](NC(=O)CCCCCCCCCCCCCCCCC(=O)O)C(=O)O)C(=O)O)NC(=O)[C@@H](NC(=O)[C@H](CC(=O)O)NC(=O)[C@H](CC(C)C)NC(=O)[C@](C)(Cc1ccccc1)NC(=O)[C@H](CCCCN)NC(=O)[C@H](CO)NC(=O)[C@@H](NC(=O)[C@H](CC(=O)O)NC(=O)[C@H](CO)NC(=O)[C@@H](NC(=O)[C@H](Cc1ccccc1)NC(=O)[C@@H](NC(=O)CNC(=O)[C@H](CCC(N)=O)NC(=O)C(C)(C)NC(=O)[C@@H](N)Cc1c[nH]cn1)[C@@H](C)O)[C@@H](C)O)C(C)C)[C@@H](C)O)C(C)C)C(=O)N[C@@H](CCC(=O)O)C(=O)N[C@@H](C)C(=O)NC(C)(C)C(=O)NCC(N)=O) [Peptide 431] | 44.6 pM | 194 pM
H[Aib]QGTFTSDVSK[αMeF]LDSK([AEEA-AEEA-γGlu-C18 diacid])RAQDFVR[Bip]LL[Aib]E-OH (N-terminus assumed; SMILES CC(C)C[C@H](NC(=O)[C@H](Cc1ccc(-c2ccccc2)cc1)NC(=O)[C@H](CCCNC(=N)N)NC(=O)[C@@H](NC(=O)[C@H](Cc1ccccc1)NC(=O)[C@H](CC(=O)O)NC(=O)[C@H](CCC(N)=O)NC(=O)[C@H](C)NC(=O)[C@H](CCCNC(=N)N)NC(=O)[C@H](CCCCNC(=O)COCCOCCNC(=O)COCCOCCNC(=O)CC[C@H](NC(=O)CCCCCCCCCCCCCCCCC(=O)O)C(=O)O)NC(=O)[C@H](CO)NC(=O)[C@H](CC(=O)O)NC(=O)[C@H](CC(C)C)NC(=O)[C@](C)(Cc1ccccc1)NC(=O)[C@H](CCCCN)NC(=O)[C@H](CO)NC(=O)[C@@H](NC(=O)[C@H](CC(=O)O)NC(=O)[C@H](CO)NC(=O)[C@@H](NC(=O)[C@H](Cc1ccccc1)NC(=O)[C@@H](NC(=O)CNC(=O)[C@H](CCC(N)=O)NC(=O)C(C)(C)NC(=O)[C@@H](N)Cc1c[nH]cn1)[C@@H](C)O)[C@@H](C)O)C(C)C)C(C)C)C(=O)N[C@@H](CC(C)C)C(=O)NC(C)(C)C(=O)N[C@@H](CCC(=O)O)C(=O)O) [Peptide 432] | 1380 pM | 1160 pM
H[Aib]QGTFTSDVSK[αMeF]LDSK([AEEA-AEEA-γGlu-γGlu-C18 diacid])RAQDFVRWLEA[Aib]G-NH2 (N-terminus assumed; SMILES CC(C)C[C@H](NC(=O)[C@H](Cc1c[nH]c2ccccc12)NC(=O)[C@H](CCCNC(=N)N)NC(=O)[C@@H](NC(=O)[C@H](Cc1ccccc1)NC(=O)[C@H](CC(=O)O)NC(=O)[C@H](CCC(N)=O)NC(=O)[C@H](C)NC(=O)[C@H](CCCNC(=N)N)NC(=O)[C@H](CCCCNC(=O)COCCOCCNC(=O)COCCOCCNC(=O)CC[C@H](NC(=O)CC[C@H](NC(=O)CCCCCCCCCCCCCCCCC(=O)O)C(=O)O)C(=O)O)NC(=O)[C@H](CO)NC(=O)[C@H](CC(=O)O)NC(=O)[C@H](CC(C)C)NC(=O)[C@](C)(Cc1ccccc1)NC(=O)[C@H](CCCCN)NC(=O)[C@H](CO)NC(=O)[C@@H](NC(=O)[C@H](CC(=O)O)NC(=O)[C@H](CO)NC(=O)[C@@H](NC(=O)[C@H](Cc1ccccc1)NC(=O)[C@@H](NC(=O)CNC(=O)[C@H](CCC(N)=O)NC(=O)C(C)(C)NC(=O)[C@@H](N)Cc1c[nH]cn1)[C@@H](C)O)[C@@H](C)O)C(C)C)C(C)C)C(=O)N[C@@H](CCC(=O)O)C(=O)N[C@@H](C)C(=O)NC(C)(C)C(=O)NCC(N)=O) [Peptide 430] | 24.4 pM | 160 pM
H[Aib]QGTFTSDVSK[αMeF]LDTK([AEEA-AEEA-γGlu-γGlu-C18 diacid])RARDFVQWLLE[Aib]G (not fully specified (C-terminus)) [Peptide 428] | 33.1 pM | 10.5 pM
H[Aib]QGTFTSDVSK[αMeF]LDSK([AEEA-AEEA-γGlu-C18 diacid])RAQDFVRWLEA[Aib]G-NH2 (N-terminus assumed; SMILES CC(C)C[C@H](NC(=O)[C@H](Cc1c[nH]c2ccccc12)NC(=O)[C@H](CCCNC(=N)N)NC(=O)[C@@H](NC(=O)[C@H](Cc1ccccc1)NC(=O)[C@H](CC(=O)O)NC(=O)[C@H](CCC(N)=O)NC(=O)[C@H](C)NC(=O)[C@H](CCCNC(=N)N)NC(=O)[C@H](CCCCNC(=O)COCCOCCNC(=O)COCCOCCNC(=O)CC[C@H](NC(=O)CCCCCCCCCCCCCCCCC(=O)O)C(=O)O)NC(=O)[C@H](CO)NC(=O)[C@H](CC(=O)O)NC(=O)[C@H](CC(C)C)NC(=O)[C@](C)(Cc1ccccc1)NC(=O)[C@H](CCCCN)NC(=O)[C@H](CO)NC(=O)[C@@H](NC(=O)[C@H](CC(=O)O)NC(=O)[C@H](CO)NC(=O)[C@@H](NC(=O)[C@H](Cc1ccccc1)NC(=O)[C@@H](NC(=O)CNC(=O)[C@H](CCC(N)=O)NC(=O)C(C)(C)NC(=O)[C@@H](N)Cc1c[nH]cn1)[C@@H](C)O)[C@@H](C)O)C(C)C)C(C)C)C(=O)N[C@@H](CCC(=O)O)C(=O)N[C@@H](C)C(=O)NC(C)(C)C(=O)NCC(N)=O) [Peptide 429] | 15 pM | 144 pM
H[Aib]QGTFTSDVSK[αMeF]LDKK([AEEA-AEEA-γGlu-C18 diacid])RAQDFVRWLKA[Aib]G-OH (N-terminus assumed; SMILES CC(C)C[C@H](NC(=O)[C@H](Cc1c[nH]c2ccccc12)NC(=O)[C@H](CCCNC(=N)N)NC(=O)[C@@H](NC(=O)[C@H](Cc1ccccc1)NC(=O)[C@H](CC(=O)O)NC(=O)[C@H](CCC(N)=O)NC(=O)[C@H](C)NC(=O)[C@H](CCCNC(=N)N)NC(=O)[C@H](CCCCNC(=O)COCCOCCNC(=O)COCCOCCNC(=O)CC[C@H](NC(=O)CCCCCCCCCCCCCCCCC(=O)O)C(=O)O)NC(=O)[C@H](CCCCN)NC(=O)[C@H](CC(=O)O)NC(=O)[C@H](CC(C)C)NC(=O)[C@](C)(Cc1ccccc1)NC(=O)[C@H](CCCCN)NC(=O)[C@H](CO)NC(=O)[C@@H](NC(=O)[C@H](CC(=O)O)NC(=O)[C@H](CO)NC(=O)[C@@H](NC(=O)[C@H](Cc1ccccc1)NC(=O)[C@@H](NC(=O)CNC(=O)[C@H](CCC(N)=O)NC(=O)C(C)(C)NC(=O)[C@@H](N)Cc1c[nH]cn1)[C@@H](C)O)[C@@H](C)O)C(C)C)C(C)C)C(=O)N[C@@H](CCCCN)C(=O)N[C@@H](C)C(=O)NC(C)(C)C(=O)NCC(=O)O) [Peptide 425] | 11.5 pM | 827 pM
